Patent publication US20200325187A1 (Genentech, published 2020)

T1: hVEGF-A (8-109) (human, UniProt P15692 214-315)
T1 sequence (looked up): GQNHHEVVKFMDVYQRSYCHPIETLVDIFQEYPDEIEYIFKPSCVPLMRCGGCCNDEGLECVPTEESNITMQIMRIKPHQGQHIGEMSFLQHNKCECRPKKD

T2: LRP6 E1E2 protein (human, UniProt O75581 20-630, limits assumed)
T2 construct: domain: E1E2
T2 sequence (looked up): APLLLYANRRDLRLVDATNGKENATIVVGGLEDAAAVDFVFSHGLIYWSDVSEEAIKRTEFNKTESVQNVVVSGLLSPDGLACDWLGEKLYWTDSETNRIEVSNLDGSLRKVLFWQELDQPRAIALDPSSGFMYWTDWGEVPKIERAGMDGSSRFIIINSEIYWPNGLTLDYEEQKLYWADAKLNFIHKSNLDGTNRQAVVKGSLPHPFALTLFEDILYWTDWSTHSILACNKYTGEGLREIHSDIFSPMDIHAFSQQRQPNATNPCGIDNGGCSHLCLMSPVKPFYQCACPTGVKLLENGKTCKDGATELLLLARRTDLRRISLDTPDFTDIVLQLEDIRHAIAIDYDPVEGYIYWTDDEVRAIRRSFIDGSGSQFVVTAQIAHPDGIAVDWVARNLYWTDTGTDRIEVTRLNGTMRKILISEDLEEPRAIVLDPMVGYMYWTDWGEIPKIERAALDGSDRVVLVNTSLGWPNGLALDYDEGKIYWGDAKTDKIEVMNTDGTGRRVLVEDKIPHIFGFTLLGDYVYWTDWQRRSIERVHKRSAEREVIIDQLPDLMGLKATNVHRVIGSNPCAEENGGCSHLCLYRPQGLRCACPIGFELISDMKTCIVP


Each binder was assayed against T1, hVEGF-A (8-109) (assay: spot phage ELISA).
GCNIMLPFWGCGRDFECLAGCVCQYYQSCGPLI (designed binder) [9.54.90-3X83]: binds. GCNIMLPFWGCGRDFECLAGCVCQYYQSCGTFQ (designed binder) [9.54.90-3x10]: binds. GCNIMLPFWGCGRDFECLAGCVCQYYQSCGDLV (designed binder) [9.54.90-3x91]: binds. GCNIMLPFWGCGRDFECLAGCVCQYYQSCGWPH (designed binder) [9.54.90-3x13]: binds. GCNIMLPFWGCGRDFECLAGCVCQYYQSCGEHK (designed binder) [9.54.90-3x42]: binds. GCNIMLPFWGCGRDFECLAGCVCQYYQSCGPHQ (designed binder) [9.54.90-3x33]: binds. GCNIMLPFWGCGRDFECLAGCVCQYYQSCGWDY (designed binder) [9.54.90-3x9]: binds. GCNIMLPFWGCGRDFECLAGCVCQYYQSCGYLS (designed binder) [9.54.90-3x88]: binds. GCDVLQPYWGCGPDIDCLSNCICHWYNSCGRL (designed binder) [63.12.12.M5L.2x21]: binds. GCDVLQPYWGCGPDIDCLSNCICHWYNSCGDE (designed binder) [63.12.12.M5L.2x25]: binds. GCDVLQPYWGCGPDIDCLSNCICHWYNSCGEQ (designed binder) [63.12.12.M5L.2x12]: binds. GCDVLQPYWGCGPDIDCLSNCICHWYNSCGSL (designed binder) [63.12.12.M5L.2x29]: binds. GCDVLQPYWGCGPDIDCLSNCICHWYNSCGWK (designed binder) [63.12.12.M5L.2x77]: binds. GCDVLQPYWGCGPDIDCLSNCICHWYNSCGRT (designed binder) [63.12.12.M5L.2x2]: binds. GCDVLQPYWGCGPDIDCLSNCICHWYNSCGQF (designed binder) [63.12.12.M5L.2x69]: binds. GCDVLQPYWGCGPDIDCLSNCICHWYNSCGPT (designed binder) [63.12.12.M5L.2x30]: binds. GCDVLQPYWGCGPDIDCLSNCICHWYNSCGPL (designed binder) [63.12.12.M5L.2x48]: binds.

Biological target: T1, hVEGF-A (8-109)
Assay: spot phage ELISA
Remark: another data set of the same source
Experimental: After four rounds of binding selection, individual phage clones were picked and inoculated into 450 μl 2YT media containing 50 µg/ml Carbenecillin and M13-KO7 helper phage in 96-well blocks, which were grown at 37° C. overnight. […] The plates were washed and bound phage was detected with anti-M13-HRP followed by TMB substrate. In these assays, phage binding to BSA alone was tested in parallel to assess background binding. […] Positive clones were subjected to DNA sequence analysis.
GCPRILMRCKQDSDCLAGCVCGPNGFCG (also called wild type EETI-II) [EETI-II] was tested, and the ELISA was 0.01 and the “S/N vs BSA” value was 1.11. GCHMMYDYCKQDSDCLAGCVCEMYDACG (designed binder) [VEGF_CKP3] was tested, and the ELISA was 3.1 and the “S/N vs BSA” value was 42.9. With GCPAIQNWKEHPCKQDSDCLAGCVCSWWPSLCG (designed binder) [VEGF_CKP5] the ELISA was 1.9 and the “S/N vs BSA” value was 28.4. GCGETVFEQFLWCKQDSDCLAGCVCGPNGFCG (designed binder) [VEGF_CKP2] was tested, and the ELISA was 3.2 and the “S/N vs BSA” value was 48.1. For GCETDWYPHQIDCKQDSDCLAGCVCGPNGFCG (designed binder) [VEGF_CKP1], the ELISA was 0.9 and the “S/N vs BSA” value was 16.9. GCKKWQWWYMCKQDSDCLAGCVCYPWTECG (designed binder) [VEGF_CKP4] was tested, and the ELISA was 2.6 and the “S/N vs BSA” value was 35.3. With GCQLMHPFWGCKQDSDCLAGCVCHWYRSCG (designed binder) [VEGF_CKP8] the ELISA was 3.9 and the “S/N vs BSA” value was 59.4. For GCNIMLPFWGCGVDYLCLAGCVCQYYQSCG (designed binder) [VEGF_CKP9.54.16], the ELISA was 2.4 and the “S/N vs BSA” value was 30.8. In the case of GCNIMLPFWGCGTNFLCLAGCVCQYYQSCG (designed binder) [VEGF_CKP9.54.31], the ELISA is reported as 2.3 and the “S/N vs BSA” value is reported as 32.5. For GCNIMLPFWGCQADYACLAGCVCQYYQSCG (designed binder) [VEGF_CKP9.54.14], the ELISA was 2.5 and the “S/N vs BSA” value was 23.5. GCNIMLPFWGCSRDFDCLAGCVCQYYQSCG (designed binder) [VEGF_CKP9.54.44] was tested, and the ELISA was 2.4 and the “S/N vs BSA” value was 34.4. GCNIMLPFWGCSGDFACLAGCVCQYYQSCG (designed binder) [VEGF_CKP9.54.64] was tested, and the ELISA was 2.2 and the “S/N vs BSA” value was 22.4. With GCQLMQPFWGCKQDSDCLAGCVCRWYNSCG (designed binder) [VEGF_CKP9.L5.7] the ELISA was 1.4 and the “S/N vs BSA” value was 18.9. In the case of GCQLMQPFWGCKQDSDCLAGCVCRWYHSCG (designed binder) [VEGF_CKP9.L5.43], the ELISA is reported as 0.9 and the “S/N vs BSA” value is reported as 13.6. For GCNIMLPFWGCGWSMDCLAGCVCQYYQSCG (designed binder) [VEGF_CKP9.54.76], the ELISA was 2.7 and the “S/N vs BSA” value was 42.2. With GCNIMLPFWGCGYDLQCLAGCVCQYYQSCG (designed binder) [VEGF_CKP9.54.87] the ELISA was 2.4 and the “S/N vs BSA” value was 26.1. For GCNIMLPFWGCGPELNCLAGCVCQYYQSCG (designed binder) [VEGF_CKP9.54.12], the ELISA was 2.4 and the “S/N vs BSA” value was 38.8. GCNIMLPFWGCGKELNCLAGCVCQYYQSCG (designed binder) [VEGF_CKP9.54.69] was tested, and the ELISA was 2.5 and the “S/N vs BSA” value was 21.7. For GCNIMLPFWGCGKDFHCLAGCVCQYYQSCG (designed binder) [VEGF_CKP9.54.56], the ELISA was 2.3 and the “S/N vs BSA” value was 35.8. In the case of GCNIMLPFWGCNRDFLCLAGCVCQYYQSCG (designed binder) [VEGF_CKP9.54.48], the ELISA is reported as 2.5 and the “S/N vs BSA” value is reported as 34.9. GCNIMLPFWGCGWDQFCLAGCVCQYYQSCG (designed binder) [VEGF_CKP9.54.51] was tested, and the ELISA was 2.5 and the “S/N vs BSA” value was 44.5.

Each binder was assayed against T2, LRP6 E1E2 protein (assay: spot phage ELISA).
In the case of GCRGNIIKCKQDSDCLAGCVCNESRGCG (designed binder) [LRP6_CKP8], the ELISA is reported as 3.23 and the “S/N vs BSA” value is reported as 37.6. With GCRTNRVKGGCKQDSDCLAGCVCGPNGFCG (designed binder) [LRP6_CKP1] the ELISA was 3.23 and the “S/N vs BSA” value was 45.5. In the case of GCRANRVSGRCKQDSDCLAGCVCGPNGFCG (designed binder) [LRP6_CKP18], the ELISA is reported as 1.67 and the “S/N vs BSA” value is reported as 18.3. In the case of GCVNKIKGCKQDSDCLAGCVCGVEGRCG (designed binder) [LRP6_CKP5], the ELISA is reported as 3.04 and the “S/N vs BSA” value is reported as 35.7. In the case of GCRSGNTIRKRECKQDSDCLAGCVCGGPGGCG (designed binder) [LRP6_CKP9], the ELISA is reported as 2.97 and the “S/N vs BSA” value is reported as 37.6. GCVSNRVNKGCKQDSDCLAGCVCGPNGFCG (designed binder) [LRP6_CKP7] was tested, and the ELISA was 3.3 and the “S/N vs BSA” value was 29. GCVNRVRGCKQDSDCLAGCVCSGGRDCG (designed binder) [LRP6_CKP2] was tested, and the ELISA was 3.41 and the “S/N vs BSA” value was 41.6. GCASSNSIRQGWCKQDSDCLAGCVCGPKSNCG (designed binder) [LRP6_CKP10] was tested, and the ELISA was 3.29 and the “S/N vs BSA” value was 37.4. In the case of GCRSVNKICKQDSDCLAGCVCGSSRNCG (designed binder) [LRP6_CKP4], the ELISA is reported as 2.82 and the “S/N vs BSA” value is reported as 25.4. For GCMNHVKARRCKQDSDCLAGCVCGPNGFCG (designed binder) [LRP6_CKP3], the ELISA was 2.93 and the “S/N vs BSA” value was 40.2.
